The text below walks through data of patent US6994856 (Genentech, dated 2006).

In assay [1] the target is T1, ErbB4.Fc (UniProt Q15303 26-651, limits assumed).
T1 construct: also called soluble form of ErbB4 receptor; immobilized soluble ErbB4 receptor; not shown: Fc part, not described; the protein was captured on the plate by goat anti-human antibody
T1 sequence (looked up): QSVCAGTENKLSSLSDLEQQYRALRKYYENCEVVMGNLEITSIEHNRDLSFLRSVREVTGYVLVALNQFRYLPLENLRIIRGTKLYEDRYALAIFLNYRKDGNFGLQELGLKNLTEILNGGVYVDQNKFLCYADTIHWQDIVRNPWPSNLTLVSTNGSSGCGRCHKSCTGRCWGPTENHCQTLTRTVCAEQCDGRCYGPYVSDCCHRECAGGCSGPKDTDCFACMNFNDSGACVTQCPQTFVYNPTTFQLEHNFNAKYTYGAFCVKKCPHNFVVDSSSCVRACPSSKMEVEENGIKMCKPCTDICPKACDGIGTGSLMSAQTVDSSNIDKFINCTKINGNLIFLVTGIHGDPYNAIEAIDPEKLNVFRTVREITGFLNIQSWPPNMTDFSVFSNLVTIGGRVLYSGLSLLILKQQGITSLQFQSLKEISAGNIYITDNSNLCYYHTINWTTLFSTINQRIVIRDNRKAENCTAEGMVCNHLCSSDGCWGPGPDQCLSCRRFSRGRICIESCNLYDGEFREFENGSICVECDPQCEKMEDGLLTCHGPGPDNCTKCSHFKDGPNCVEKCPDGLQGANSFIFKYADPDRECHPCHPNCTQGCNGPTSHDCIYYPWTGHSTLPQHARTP
Kind of assay: displacement of 125I-NRG3^EGF.Fc from immobilized ErbB4.Fc by NRG1^EGF.

For assay [2], the target named is T1, ErbB4.Fc. In words: displacement of 125I-NRG3^EGF.Fc from immobilized ErbB4.Fc by unlabeled NRG3^EGF.Fc. The method, then: The displacement binding assays were performed in Maxisorp C 96-wells (Nunc, Naperville, Ill.). Goat anti-human antibody (Boehringer Mannheim, Germany) was coated on the plate at a concentration of 0.2 µg/well in 100 µl of 50 mM sodium carbonate buffer (pH 9.6) at 4° C., overnight. The plate was blocked by 1% BSA in TBST buffer (25 mM Tris, pH 7.5, 150 mM NaCl, 0.02% Tween 20) for 30 min at room temperature (RT). A soluble form of ErbB4 receptor was added at 15 ng/well in 1% BSA/TBST and incubated for 1.5 hr at RT. To prevent radiolabeled protein from interacting with residual goat anti-human antibodies, 1 µM of a humanized monoclonal antibody (rhuMAB HER2; Carter, P. et al. (1992) *Proc. Natl. Acad. Sci. USA* 89:4285–9) was added to the plate for 20 min and was included in the subsequent binding reaction.
The unbound material was washed by TBST extensively, and the bound radioactivity was counted on a Beckman IsoData gamma-counter (Smith-Kline Beckman, Pa.). Data was analyzed using a nonlinear regression computer program.
(In a radioligand displacement assay an active substance lowers the binding of a labelled ligand.)

For assay [3], the target named is T2, human ErbB3 receptor on cells (human, UniProt P21860 20-1342).
T2 construct: whole, on cells; also called HER3; K562^erbB3 cells
T2 sequence (P21860 20-1342): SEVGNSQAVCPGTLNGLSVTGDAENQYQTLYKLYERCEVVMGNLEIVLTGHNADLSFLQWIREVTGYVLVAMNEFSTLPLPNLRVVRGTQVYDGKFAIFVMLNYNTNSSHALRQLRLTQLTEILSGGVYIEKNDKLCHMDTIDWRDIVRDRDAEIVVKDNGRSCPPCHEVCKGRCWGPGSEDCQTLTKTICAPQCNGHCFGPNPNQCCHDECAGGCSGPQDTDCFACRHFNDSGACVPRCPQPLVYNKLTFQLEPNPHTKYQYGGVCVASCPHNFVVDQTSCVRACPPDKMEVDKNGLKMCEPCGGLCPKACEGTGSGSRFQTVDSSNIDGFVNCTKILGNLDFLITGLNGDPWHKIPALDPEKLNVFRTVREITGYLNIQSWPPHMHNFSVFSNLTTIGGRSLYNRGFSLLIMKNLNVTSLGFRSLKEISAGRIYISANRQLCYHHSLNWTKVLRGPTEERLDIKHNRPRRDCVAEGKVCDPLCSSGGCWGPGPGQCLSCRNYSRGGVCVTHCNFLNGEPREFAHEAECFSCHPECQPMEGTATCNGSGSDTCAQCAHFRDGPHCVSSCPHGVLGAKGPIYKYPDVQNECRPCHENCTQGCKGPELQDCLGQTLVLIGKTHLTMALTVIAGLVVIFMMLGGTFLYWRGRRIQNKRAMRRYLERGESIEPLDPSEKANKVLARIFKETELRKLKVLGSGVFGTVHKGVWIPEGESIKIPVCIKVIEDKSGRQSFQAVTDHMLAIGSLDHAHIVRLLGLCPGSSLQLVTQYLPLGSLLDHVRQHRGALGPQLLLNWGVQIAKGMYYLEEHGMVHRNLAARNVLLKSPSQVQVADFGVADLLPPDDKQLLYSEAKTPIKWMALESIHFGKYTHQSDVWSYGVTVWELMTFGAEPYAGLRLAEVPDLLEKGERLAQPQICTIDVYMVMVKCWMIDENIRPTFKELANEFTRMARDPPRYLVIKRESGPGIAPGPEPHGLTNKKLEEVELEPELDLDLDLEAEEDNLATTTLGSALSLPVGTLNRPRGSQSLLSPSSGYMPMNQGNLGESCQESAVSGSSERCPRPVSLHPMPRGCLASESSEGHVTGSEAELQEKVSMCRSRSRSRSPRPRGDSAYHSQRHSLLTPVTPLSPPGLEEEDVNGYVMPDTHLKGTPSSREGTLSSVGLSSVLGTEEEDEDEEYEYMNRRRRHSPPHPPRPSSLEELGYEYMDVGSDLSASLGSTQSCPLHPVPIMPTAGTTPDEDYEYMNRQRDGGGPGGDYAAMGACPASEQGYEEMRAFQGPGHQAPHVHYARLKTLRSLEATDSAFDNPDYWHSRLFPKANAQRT
Kind of assay: FACS on K562^erbB3 cells. On the procedure: (§1) In FIGS. 6A–6D, parental K562 cells (FIG. 6A) or K562 cells expressing either ErbB2 receptor (K562^erbB2 cells; FIG. 6B), ErbB3 receptor (K562^erbB3 cells; FIG. 6C) or ErbB4 receptor (K562^erbB4 cells; FIG. 6D) were examined for the expression of corresponding receptors. Cells were incubated with anti-ErbB2 receptor, anti-ErbB3 receptor or anti-ErbB4 receptor antibodies as indicated before PE-conjugated secondary antibody was added. "LOG PE" represents relative fluorescent intensity and "Counts" represents cell numbers. In FIGS. 6E–6H, NRG3^EGF.Fc is shown by FACS analysis to bind to ErbB4 receptor expressing cells. Parental K562 cells (FIG. 6E), K562^erbB2 cells (FIG. 6F), K562^erbB3 cells (FIG. 6G) and K562^erbB4 cells (FIG. 6H) were incubated with or without NRG3^EGF.Fc (containing gD tag) for 1 hour, followed by anti-gD-tag primary antibody and PE-conjugated secondary antibody.
(§2) C. FACS Analysis. For each binding reaction, 5×10^5 stably transfected K562 cells were suspended in PBS/2% BSA at 4° C. for 30 min followed by incubation with 5 µg of isolated, purified NRG3^EGF.Fc (MW 90 kDa) in a volume of 0.25 ml on ice for 60 min. 1 µg of primary antibody (anti-gD or anti-ErbB receptor) and secondary PE-conjugated (CALTAG, Calif., goat anti-mouse, 1:100 dilution) antibodies were added sequentially with 30–60 min incubation time and extensive washes before each addition. […]

Assay [4] has as its target T3, human ErbB2 receptor on cells (human, UniProt P04626 23-1255).
T3 construct: whole, on cells; also called HER2; K562^erbB2 cells
Kind of assay: FACS on K562^erbB2 cells. The method, then:
as §1, §2

gD epitope tag = herpes gD epitope tag left after the gD signal sequence; Fc (human IgG1) = Fc portion of human IgG1

What is called Ki is a measure of affinity in units of concentration, obtained from inhibition or displacement. Read a low Ki as tighter binding. “NRG1^EGF (from UniProt Q02297 177-244) (ligand)” had a Ki with ErbB4.Fc [1] of 1 nM.

B1: NRG3^EGF.Fc (Fc fusion)
chain: {gD epitope tag}-ERSEHFKPCRDKDLAYCLNDGECFVIETLTGSHKHCRCKEGYQGVRCDQFLPKTDSILSDP-{Fc (human IgG1)}
modifications: not fully specified
notes: Secreted from CHO cells, purified on protein A; MW 90 kDa; also called NRG3-EGF-Fc fusion protein; not shown: Fc portion of human IgG1
Take B1: in the assay with ErbB4.Fc [2], the affinity, expressed as Ki, was 9 nM. The binding result in assay [3] and in assay [4] was “no binding (tested: 5 µg in a volume of 0.25 ml)” in each case.
